The term Kd denotes the free concentration of one partner at which half of the binding sites on the other are occupied at equilibrium, for simple one-to-one binding.

Consider 4 molecules from patent US20190309087A1.

For assay [1], the target named is recombinant mouse CD34 (Sino Biological) (mouse) (UniProt Q64314). In words: ELISA on coated recombinant mouse CD34. (In general: An ELISA detects its analyte on a solid surface through an enzyme-linked reagent.)
Assay [2] shares this target. In words: ELISA on coated recombinant mouse CD34, LNPs pre-incubated with Triton X-100, anti-Rat HRP detection.
Assay [3] concerns the target anti-CD34 RIg (clone mec14.7) held by ASSET on TsiLNPs. In words: share of added RIg held on ASSET LNPs, gel quantification after purification.
For assay [4], the target named is Rat IgG2a (RIg), BioXcell clone FIB504. In words: ELISA, plates coated with 5 µg/ml RIg, ASSET in serial dilutions, anti-His detection.
For assay [5] the target is unchanged. In words: ELISA on coated RIg of ASSET LNPs after dialysis, LNPs pre-incubated with 0.2% Triton X-100.
The target of assay [6] is Rat IgG2a (RIg) immobilized on the Biacore chip (Rattus norvegicus (Rat)) (UniProt P20760). The assay can be described thus: SPR, Biacore T-200, RIg immobilized on CM5 chip, mASSET 0 to 30 nM. (In general: SPR reads the build-up and loss of mass on a sensor chip optically.)
Sequence of UniProt P20760 (P20760 whole entry): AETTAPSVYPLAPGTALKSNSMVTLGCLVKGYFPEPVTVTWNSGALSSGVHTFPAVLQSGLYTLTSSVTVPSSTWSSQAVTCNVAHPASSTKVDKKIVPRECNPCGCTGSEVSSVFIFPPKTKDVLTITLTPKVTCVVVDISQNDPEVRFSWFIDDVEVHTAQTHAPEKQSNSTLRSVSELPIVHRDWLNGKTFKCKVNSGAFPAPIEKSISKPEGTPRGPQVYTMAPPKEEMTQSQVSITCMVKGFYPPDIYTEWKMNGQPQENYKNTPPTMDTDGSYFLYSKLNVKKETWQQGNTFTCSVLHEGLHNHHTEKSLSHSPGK

Sequence of UniProt Q64314 (Q64314 35-287 limits assumed): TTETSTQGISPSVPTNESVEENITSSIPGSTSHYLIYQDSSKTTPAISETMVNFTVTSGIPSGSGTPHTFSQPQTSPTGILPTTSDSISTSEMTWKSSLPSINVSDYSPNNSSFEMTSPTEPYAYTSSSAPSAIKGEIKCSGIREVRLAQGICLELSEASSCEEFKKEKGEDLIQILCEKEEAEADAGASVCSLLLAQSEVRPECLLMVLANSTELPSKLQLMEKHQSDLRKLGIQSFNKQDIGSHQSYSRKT

“anti-CD34 RIg (clone mec14.7) chemically conjugated to LNPs (ccTsiLNPs) (antibody)”: in assay [1], the fold loss in activity against RIg bound to the LNP by ASSET amounted to 4.5 fold. Besides, the Kd in assay [2] stood at 1.08 nM. “anti-CD34 RIg (clone mec14.7) held by ASSET on TsiLNPs (antibody)”: the Kd in assay [2] amounted to 0.24 nM.

B1: ASSET (Anchored Secondary scFv Enabling Targeting) (scFv, part only; not given: mCherry fusion and junctions, part only)
scFv, part: CDQSSSEVQLLQSGPELVKPGASVKIPCKASGYTFTDYNMDWVKQSHEKSLEWIGYINPYSGDTIYNHKFKDKATLTVYKSSNIAYMELRSLTSEDTAVYYCARGGYDYGDHWGQGTTLTVSSGSAGGGGSGGGGSGGGGSDIKMTQSPSSMYASLGERVTITCKASQDINSYLSWFQQKPGKSPKTLIYRANRLVDGVPSRFSGSGSGQDYSLTISSLEYEDMGIYYCLQDDEFPRTFGGGTKLEIKHHHHHH
modifications: N-terminal cysteine of the CDQSSS NlpA motif is lipid-acylated (bacterial lipidation)
As for B1, the IgG incorporation in assay [3] was 98.3%. The Kd in assay [4] amounted to 10 nM. In addition, the functionality maintained after incorporation into LNPs in assay [5] was found to be 95.8%.

B2: mutated (m)ASSET, fusion protein containing a mutated NlpA motif (scFv, not shown: small tags and cut ends)
scFv: EVQLLQSGPELVKPGASVKIPCKASGYTFTDYNMDWVKQSHEKSLEWIGYINPYSGDTIYNHKFKDKATLTVYKSSNIAYMELRSLTSEDTAVYYCARGGYDYGDHWGQGTTLTVSSGSAGGGGSGGGGSGGGGSDIKMTQSPSSMYASLGERVTITCKASQDINSYLSWFQQKPGKSPKTLIYRANRLVDGVPSRFSGSGSGQDYSLTISSLEYEDMGIYYCLQDDEFPRTFGGGTKLEIK
Take B2: the Kd in assay [6] was determined as 22.7 nM.
